This assay deals with HRgpA-6H (Porphyromonas gingivalis) (UniProt P28784). The experiment in a line: ELISA on coated HRgpA-6H.

Values joined by “and” are separate entries in the source; they are usually repeats but may differ in a detail not shown here. Equal entries are not always repeated.

Sequence of UniProt P28784 (P28784 228-991 limits assumed): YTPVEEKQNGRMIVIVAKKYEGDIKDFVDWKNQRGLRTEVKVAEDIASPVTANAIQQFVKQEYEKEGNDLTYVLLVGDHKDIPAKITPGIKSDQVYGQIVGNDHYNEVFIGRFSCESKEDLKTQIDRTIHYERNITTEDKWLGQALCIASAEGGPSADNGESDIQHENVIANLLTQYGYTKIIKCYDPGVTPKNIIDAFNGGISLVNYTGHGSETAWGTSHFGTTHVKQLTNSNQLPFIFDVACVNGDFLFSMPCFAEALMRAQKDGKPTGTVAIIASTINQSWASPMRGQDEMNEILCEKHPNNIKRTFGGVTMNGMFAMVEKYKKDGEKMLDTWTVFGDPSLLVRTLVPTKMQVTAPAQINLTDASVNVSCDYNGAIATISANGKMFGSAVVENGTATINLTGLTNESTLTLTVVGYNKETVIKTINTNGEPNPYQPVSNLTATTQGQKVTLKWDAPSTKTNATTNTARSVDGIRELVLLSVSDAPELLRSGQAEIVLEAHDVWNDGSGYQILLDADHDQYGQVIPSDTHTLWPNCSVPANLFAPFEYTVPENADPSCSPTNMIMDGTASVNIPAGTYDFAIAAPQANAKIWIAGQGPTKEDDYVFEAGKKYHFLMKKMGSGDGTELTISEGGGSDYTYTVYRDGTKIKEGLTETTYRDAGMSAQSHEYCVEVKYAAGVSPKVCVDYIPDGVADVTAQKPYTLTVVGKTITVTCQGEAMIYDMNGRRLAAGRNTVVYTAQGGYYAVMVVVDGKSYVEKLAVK

B1: KB001 mouse Fab FASEBA VH Y106L (Fab, V domains shown)
VH: EVQLKQSGPGLVAPSQSLSITCTVSGFSLSIYSVHWVRQPPGKGLEWLGMIWGGGSSDYNSALKSRLSISKDNSKSQVFLKMNSLQTDDTAMYYCARNGNFYAMDLWGQGTSVTVSS
VL: QIVLTQSPAIMSASLGERVTMTCTASSSVSSSFLHWYQQKPGSSPQLWIYSTSNLASGVPARFSGSGSGTSYSLTISSMEAEDAATYYCHQYHHSPYIYTFGGGTKLEIK
In the case of B1, the OD450nm was determined as 0.791 and the Ratio OD(Variant)/OD(WT) was 1.03.

B2: KB001 mouse Fab FASEBA VH Y106W (Fab, V domains shown)
VH: EVQLKQSGPGLVAPSQSLSITCTVSGFSLSIYSVHWVRQPPGKGLEWLGMIWGGGSSDYNSALKSRLSISKDNSKSQVFLKMNSLQTDDTAMYYCARNGNFYAMDWWGQGTSVTVSS
VL: QIVLTQSPAIMSASLGERVTMTCTASSSVSSSFLHWYQQKPGSSPQLWIYSTSNLASGVPARFSGSGSGTSYSLTISSMEAEDAATYYCHQYHHSPYIYTFGGGTKLEIK
Consider B2, for which the OD450nm was 0.791 and 0.809 and 0.82; the Ratio OD(Variant)/OD(WT) was 1.03 and 1.05 and 1.07.

B3: KB001 mouse Fab FASEBA VH Y106F (Fab, V domains shown)
VH: EVQLKQSGPGLVAPSQSLSITCTVSGFSLSIYSVHWVRQPPGKGLEWLGMIWGGGSSDYNSALKSRLSISKDNSKSQVFLKMNSLQTDDTAMYYCARNGNFYAMDFWGQGTSVTVSS
VL: QIVLTQSPAIMSASLGERVTMTCTASSSVSSSFLHWYQQKPGSSPQLWIYSTSNLASGVPARFSGSGSGTSYSLTISSMEAEDAATYYCHQYHHSPYIYTFGGGTKLEIK
In the case of B3, the OD450nm was 0.815 and 0.856; the Ratio OD(Variant)/OD(WT) was 1.06 and 1.11.

B4: KB001 mouse Fab FASEBA VH Y106K (Fab, V domains shown)
VH: EVQLKQSGPGLVAPSQSLSITCTVSGFSLSIYSVHWVRQPPGKGLEWLGMIWGGGSSDYNSALKSRLSISKDNSKSQVFLKMNSLQTDDTAMYYCARNGNFYAMDKWGQGTSVTVSS
VL: QIVLTQSPAIMSASLGERVTMTCTASSSVSSSFLHWYQQKPGSSPQLWIYSTSNLASGVPARFSGSGSGTSYSLTISSMEAEDAATYYCHQYHHSPYIYTFGGGTKLEIK
Turning to B4, the OD450nm worked out at 0.807 and the Ratio OD(Variant)/OD(WT) amounted to 1.05.

B5: KB001 mouse Fab FASEBA VH Y106R (Fab, V domains shown)
VH: EVQLKQSGPGLVAPSQSLSITCTVSGFSLSIYSVHWVRQPPGKGLEWLGMIWGGGSSDYNSALKSRLSISKDNSKSQVFLKMNSLQTDDTAMYYCARNGNFYAMDRWGQGTSVTVSS
VL: QIVLTQSPAIMSASLGERVTMTCTASSSVSSSFLHWYQQKPGSSPQLWIYSTSNLASGVPARFSGSGSGTSYSLTISSMEAEDAATYYCHQYHHSPYIYTFGGGTKLEIK
B5: the OD450nm came out at 0.793 and the Ratio OD(Variant)/OD(WT) is 1.03.

B6: KB001 mouse Fab FASEBA VH Y106V (Fab, V domains shown)
VH: EVQLKQSGPGLVAPSQSLSITCTVSGFSLSIYSVHWVRQPPGKGLEWLGMIWGGGSSDYNSALKSRLSISKDNSKSQVFLKMNSLQTDDTAMYYCARNGNFYAMDVWGQGTSVTVSS
VL: QIVLTQSPAIMSASLGERVTMTCTASSSVSSSFLHWYQQKPGSSPQLWIYSTSNLASGVPARFSGSGSGTSYSLTISSMEAEDAATYYCHQYHHSPYIYTFGGGTKLEIK
Turning to B6, the OD450nm was 0.795 and 0.84 and 0.802; the Ratio OD(Variant)/OD(WT) is 1.03 and 1.09 and 1.04.

B7: KB001 mouse Fab FASEBA VH Y106Q (Fab, V domains shown)
VH: EVQLKQSGPGLVAPSQSLSITCTVSGFSLSIYSVHWVRQPPGKGLEWLGMIWGGGSSDYNSALKSRLSISKDNSKSQVFLKMNSLQTDDTAMYYCARNGNFYAMDQWGQGTSVTVSS
VL: QIVLTQSPAIMSASLGERVTMTCTASSSVSSSFLHWYQQKPGSSPQLWIYSTSNLASGVPARFSGSGSGTSYSLTISSMEAEDAATYYCHQYHHSPYIYTFGGGTKLEIK
For the molecule B7, the OD450nm worked out at 0.792 and the Ratio OD(Variant)/OD(WT) was found to be 1.03.

B8: KB001 mouse Fab FASEBA VH Y106S (Fab, V domains shown)
VH: EVQLKQSGPGLVAPSQSLSITCTVSGFSLSIYSVHWVRQPPGKGLEWLGMIWGGGSSDYNSALKSRLSISKDNSKSQVFLKMNSLQTDDTAMYYCARNGNFYAMDSWGQGTSVTVSS
VL: QIVLTQSPAIMSASLGERVTMTCTASSSVSSSFLHWYQQKPGSSPQLWIYSTSNLASGVPARFSGSGSGTSYSLTISSMEAEDAATYYCHQYHHSPYIYTFGGGTKLEIK
For the molecule B8, the OD450nm was 0.852 and 0.849; the Ratio OD(Variant)/OD(WT) is 1.11 and 1.1.

B9: KB001 mouse Fab FASEBA VH S28A (Fab, V domains shown)
VH: EVQLKQSGPGLVAPSQSLSITCTVSGFALSIYSVHWVRQPPGKGLEWLGMIWGGGSSDYNSALKSRLSISKDNSKSQVFLKMNSLQTDDTAMYYCARNGNFYAMDYWGQGTSVTVSS
VL: QIVLTQSPAIMSASLGERVTMTCTASSSVSSSFLHWYQQKPGSSPQLWIYSTSNLASGVPARFSGSGSGTSYSLTISSMEAEDAATYYCHQYHHSPYIYTFGGGTKLEIK
Turning to B9, the OD450nm was 0.488 and the Ratio OD(Variant)/OD(WT) amounted to 0.904.

B10: KB001 mouse Fab FASEBA VH Y106T (Fab, V domains shown)
VH: EVQLKQSGPGLVAPSQSLSITCTVSGFSLSIYSVHWVRQPPGKGLEWLGMIWGGGSSDYNSALKSRLSISKDNSKSQVFLKMNSLQTDDTAMYYCARNGNFYAMDTWGQGTSVTVSS
VL: QIVLTQSPAIMSASLGERVTMTCTASSSVSSSFLHWYQQKPGSSPQLWIYSTSNLASGVPARFSGSGSGTSYSLTISSMEAEDAATYYCHQYHHSPYIYTFGGGTKLEIK
As to B10, the OD450nm worked out at 0.827 and the Ratio OD(Variant)/OD(WT) was 1.07.

B11: KB001 mouse Fab FASEBA VH G26D (Fab, V domains shown)
VH: EVQLKQSGPGLVAPSQSLSITCTVSDFSLSIYSVHWVRQPPGKGLEWLGMIWGGGSSDYNSALKSRLSISKDNSKSQVFLKMNSLQTDDTAMYYCARNGNFYAMDYWGQGTSVTVSS
VL: QIVLTQSPAIMSASLGERVTMTCTASSSVSSSFLHWYQQKPGSSPQLWIYSTSNLASGVPARFSGSGSGTSYSLTISSMEAEDAATYYCHQYHHSPYIYTFGGGTKLEIK
B11: the OD450nm is 0.47 and 0.481; the Ratio OD(Variant)/OD(WT) was 0.925 and 0.947.

B12: KB001 mouse Fab FASEBA VH S28L (Fab, V domains shown)
VH: EVQLKQSGPGLVAPSQSLSITCTVSGFLLSIYSVHWVRQPPGKGLEWLGMIWGGGSSDYNSALKSRLSISKDNSKSQVFLKMNSLQTDDTAMYYCARNGNFYAMDYWGQGTSVTVSS
VL: QIVLTQSPAIMSASLGERVTMTCTASSSVSSSFLHWYQQKPGSSPQLWIYSTSNLASGVPARFSGSGSGTSYSLTISSMEAEDAATYYCHQYHHSPYIYTFGGGTKLEIK
Regarding B12, the OD450nm is 0.435 and 0.468; the Ratio OD(Variant)/OD(WT) is 0.806 and 0.867.

B13: KB001 mouse Fab FASEBA VH S28H (Fab, V domains shown)
VH: EVQLKQSGPGLVAPSQSLSITCTVSGFHLSIYSVHWVRQPPGKGLEWLGMIWGGGSSDYNSALKSRLSISKDNSKSQVFLKMNSLQTDDTAMYYCARNGNFYAMDYWGQGTSVTVSS
VL: QIVLTQSPAIMSASLGERVTMTCTASSSVSSSFLHWYQQKPGSSPQLWIYSTSNLASGVPARFSGSGSGTSYSLTISSMEAEDAATYYCHQYHHSPYIYTFGGGTKLEIK
On to B13, for which the OD450nm was 0.511 and 0.526; the Ratio OD(Variant)/OD(WT) is 0.946 and 0.974.

B14: KB001 mouse Fab FASEBA VH Y106M (Fab, V domains shown)
VH: EVQLKQSGPGLVAPSQSLSITCTVSGFSLSIYSVHWVRQPPGKGLEWLGMIWGGGSSDYNSALKSRLSISKDNSKSQVFLKMNSLQTDDTAMYYCARNGNFYAMDMWGQGTSVTVSS
VL: QIVLTQSPAIMSASLGERVTMTCTASSSVSSSFLHWYQQKPGSSPQLWIYSTSNLASGVPARFSGSGSGTSYSLTISSMEAEDAATYYCHQYHHSPYIYTFGGGTKLEIK
Take B14: the OD450nm is 0.794 and 0.84; the Ratio OD(Variant)/OD(WT) is 1.03 and 1.09.

B15: KB001 mouse Fab FASEBA VH S28G (Fab, V domains shown)
VH: EVQLKQSGPGLVAPSQSLSITCTVSGFGLSIYSVHWVRQPPGKGLEWLGMIWGGGSSDYNSALKSRLSISKDNSKSQVFLKMNSLQTDDTAMYYCARNGNFYAMDYWGQGTSVTVSS
VL: QIVLTQSPAIMSASLGERVTMTCTASSSVSSSFLHWYQQKPGSSPQLWIYSTSNLASGVPARFSGSGSGTSYSLTISSMEAEDAATYYCHQYHHSPYIYTFGGGTKLEIK
Regarding B15, the OD450nm is 0.468 and 0.486; the Ratio OD(Variant)/OD(WT) is 0.867 and 0.9.

B16: KB001 mouse Fab FASEBA VH Y106N (Fab, V domains shown)
VH: EVQLKQSGPGLVAPSQSLSITCTVSGFSLSIYSVHWVRQPPGKGLEWLGMIWGGGSSDYNSALKSRLSISKDNSKSQVFLKMNSLQTDDTAMYYCARNGNFYAMDNWGQGTSVTVSS
VL: QIVLTQSPAIMSASLGERVTMTCTASSSVSSSFLHWYQQKPGSSPQLWIYSTSNLASGVPARFSGSGSGTSYSLTISSMEAEDAATYYCHQYHHSPYIYTFGGGTKLEIK
Turning to B16, the OD450nm was determined as 0.792 and the Ratio OD(Variant)/OD(WT) is 1.03.

B17: KB001 mouse Fab FASEBA VH Y106I (Fab, V domains shown)
VH: EVQLKQSGPGLVAPSQSLSITCTVSGFSLSIYSVHWVRQPPGKGLEWLGMIWGGGSSDYNSALKSRLSISKDNSKSQVFLKMNSLQTDDTAMYYCARNGNFYAMDIWGQGTSVTVSS
VL: QIVLTQSPAIMSASLGERVTMTCTASSSVSSSFLHWYQQKPGSSPQLWIYSTSNLASGVPARFSGSGSGTSYSLTISSMEAEDAATYYCHQYHHSPYIYTFGGGTKLEIK
Take B17: the OD450nm worked out at 0.803 and the Ratio OD(Variant)/OD(WT) was determined as 1.04.

B18: KB001 mouse Fab FASEBA VH Y106A (Fab, V domains shown)
VH: EVQLKQSGPGLVAPSQSLSITCTVSGFSLSIYSVHWVRQPPGKGLEWLGMIWGGGSSDYNSALKSRLSISKDNSKSQVFLKMNSLQTDDTAMYYCARNGNFYAMDAWGQGTSVTVSS
VL: QIVLTQSPAIMSASLGERVTMTCTASSSVSSSFLHWYQQKPGSSPQLWIYSTSNLASGVPARFSGSGSGTSYSLTISSMEAEDAATYYCHQYHHSPYIYTFGGGTKLEIK
Turning to B18, the OD450nm was 0.821 and 0.835; the Ratio OD(Variant)/OD(WT) was 1.07 and 1.09.

B19: KB001 mouse Fab FASEBA VH G26N (Fab, V domains shown)
VH: EVQLKQSGPGLVAPSQSLSITCTVSNFSLSIYSVHWVRQPPGKGLEWLGMIWGGGSSDYNSALKSRLSISKDNSKSQVFLKMNSLQTDDTAMYYCARNGNFYAMDYWGQGTSVTVSS
VL: QIVLTQSPAIMSASLGERVTMTCTASSSVSSSFLHWYQQKPGSSPQLWIYSTSNLASGVPARFSGSGSGTSYSLTISSMEAEDAATYYCHQYHHSPYIYTFGGGTKLEIK
Take B19: the OD450nm was 0.445 and the Ratio OD(Variant)/OD(WT) was found to be 0.876.

(Values after patent US20230365662A1.)
